Experimental data reported in US20200405833A1 (AFFIMED, published 2020).

T1: Mouse FcRn (FCGRT/B2M) (mouse, UniProt Q61559 22-297; P01887 21-119, biotin-labelled (Avi-Tag))
T1 construct: Purchased; also called murine FcRn; murine FcRn receptor
T1 sequence (looked up): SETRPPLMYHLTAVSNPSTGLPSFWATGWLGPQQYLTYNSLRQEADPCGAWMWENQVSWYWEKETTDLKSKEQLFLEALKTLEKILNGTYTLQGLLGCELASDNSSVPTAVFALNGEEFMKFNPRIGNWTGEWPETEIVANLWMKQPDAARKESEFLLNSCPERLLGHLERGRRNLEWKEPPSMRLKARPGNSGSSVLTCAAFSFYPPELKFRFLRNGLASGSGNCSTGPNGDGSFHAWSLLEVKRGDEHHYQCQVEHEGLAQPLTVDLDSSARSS
T1 sequence (b2m, looked up): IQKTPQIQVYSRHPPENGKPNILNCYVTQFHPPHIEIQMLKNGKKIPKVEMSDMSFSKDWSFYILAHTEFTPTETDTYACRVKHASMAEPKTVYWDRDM


Tests used:
human EGFR on cells [1] = biological target: T2, human EGFR on cells (human, UniProt P00533 25-1210); test: cell-based or functional assay
human EGFR on cells [2] = biological target: T2, human EGFR on cells; test: cell-based or functional assay; remark: listed apart in the source
human EGFR on cells [3] = biological target: T2, human EGFR on cells; test: flow cytometry on EGFR-expressing A-431 cells, 37° C.
[4] = biological target: T3, CD16A on primary human NK-cells (human, UniProt P08637 17-254); test: flow cytometry on primary human NK-cells, 37° C., without gammanorm
T3 construct: whole, on cells; also called FcγRIIIA
Procedure: (§1) After the last staining step, the cells were washed again and resuspended in 0.2 mL of FACS buffer containing 2 μg/mL propidium iodide (PI) (Sigma, cat.: P4170) in order to exclude dead cells. The fluorescence of 2-5×10³ living cells was measured using a Millipore Guava EasyCyte flow cytometer (Merck Millipore, Schwalbach, Germany). Mean fluorescence intensities of the cell samples were calculated using Incyte software (Merck Millipore, Schwalbach, Germany). After subtracting the fluorescence intensity values of the cells stained with the secondary and tertiary reagents alone, the values were used for non-linear regression analysis using the GraphPad Prism software (GraphPad Prism version 6.00 for Windows, GraphPad Software, La Jolla Calif. USA). For the calculation of KD, the equation for one-site-binding (hyperbola) was used.
(§2) To assess the impact of physiological concentrations of human IgG on the binding capacity of bispecific EGFR/CD16A antigen-binding proteins, binding assays with several bispecific EGFR/CD16A antigen-binding proteins on primary human NK-cells were performed in presence or absence of 10 mg/mL polyclonal human IgG as exemplarily shown in FIG. 10.

[5] = biological target: T3, CD16A on primary human NK-cells; test: flow cytometry on primary human NK-cells, 37°C, without IgG; mean of 2 experiments
Procedure: as §1, §2

[6] = biological target: T4, Cynomolgus FcRn (FCGRT/B2M) (cynomolgus, UniProt Q8SPV9 24-297; Q8SPW0 21-119, biotin-labelled (Avi-Tag)); test: SPR (Biacore T200), pH 6.0, biotinylated FcRn captured, multi cycle kinetics, 1:1 model
T4 construct: Purchased; also called FcRn (FCGRT/B2M), Avi-Tag, Biotin-Labeled, (Cynomolgus) Acro Cat #FCM-C82W5
T4 sequence (Q8SPV9 24-297 limits assumed, chain 1 of 2): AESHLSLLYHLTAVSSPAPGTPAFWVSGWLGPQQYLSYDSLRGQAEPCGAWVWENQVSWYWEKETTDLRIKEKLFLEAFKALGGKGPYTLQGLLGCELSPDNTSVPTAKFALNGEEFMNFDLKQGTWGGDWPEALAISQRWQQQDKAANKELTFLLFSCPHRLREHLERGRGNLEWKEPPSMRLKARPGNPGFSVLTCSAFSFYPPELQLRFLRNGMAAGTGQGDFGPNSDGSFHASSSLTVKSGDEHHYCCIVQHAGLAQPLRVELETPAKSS
T4 sequence (Q8SPW0 21-119 limits assumed, chain 2 of 2): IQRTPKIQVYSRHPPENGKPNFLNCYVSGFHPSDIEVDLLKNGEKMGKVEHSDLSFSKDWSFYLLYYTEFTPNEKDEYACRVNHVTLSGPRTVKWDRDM
Procedure: (§3) Binding of EGFR/CD16A antigen-binding proteins to FcRn (human, cynomolgus, murine) was measured on a Biacore T200 Instrument at 25° C. using PBS-T buffer pH 6.0 as running buffer and for dilution (1×Gibco PBS, 0.005% Tween20, titrated to pH 6.0 using 4 M HCl). For this purpose, a Multi Cycle Kinetic experiments was performed using Biotin CAPture Kit (GE Healthcare). For activation of the sensor surface, Biotin CAPture reagent (GE Healthcare) was injected to Flow Cells Fc 1-4 (100 sec, 5 μL/min) resulting in a response of 2100 RU-2800 RU. Biotinylated FcRn of different species were injected to Flow Cell Fc 2 (5 μL/min) resulting in a response of about 8-15 RU. A dilution series of EGFR/CD16A antigen-binding proteins was in (pH 7.4) as running buffer and for dilution. […] Chip was regenerated using Regeneration solution (GE Healthcare) (10 μL/min, Flow cells 1-4, 120 sec). Sensorgrams are referenced by subtraction of zero concentration cycle and subtraction of signals in reference channel Fc 1 (Fc 2-1, Fc 3-1, Fc 4-1). […] Chip was regenerated using Regeneration solution (GE Healthcare) (10 μL/min, Flow cells 1-4, 120 sec). […] Binding kinetics were evaluated by fitting data to 1:1 Binding Model (Rmax and RI locally fitted) using Biacore T200 Evaluation Software.

Human FcRn (FCGRT/B2M) = biological target: T5, Human FcRn (FCGRT/B2M) (human, UniProt P55899 24-297; P61769 21-119, biotin-labelled (site not stated)); test: as above
T5 construct: Purchased; also called FcRn (FCGRT/B2M), His-Tag, Biotin-Labeled, (Human) HiP Cat #71283
T5 sequence (P55899 24-297 limits assumed, chain 1 of 2): as the sequence (Q8SPV9 24-297 limits assumed, chain 1 of 2) above, with D39N, Q44E, S99G, G189S, N190S, M217L, T269S counted along it
T5 sequence (P61769 21-119 limits assumed, chain 2 of 2): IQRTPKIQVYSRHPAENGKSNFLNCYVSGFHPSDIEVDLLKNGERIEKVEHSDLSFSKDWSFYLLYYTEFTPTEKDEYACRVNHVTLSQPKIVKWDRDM

Mouse FcRn (FCGRT/B2M) = biological target: T1, Mouse FcRn (FCGRT/B2M); test: as above
Procedure: as §3

[7] = biological target: T3, CD16A on primary human NK-cells; test: flow cytometry on primary human NK-cells, 37°C, with 10 mg/mL polyclonal human IgG (Gammanorm); mean of 2 experiments
Procedure: as §1, §2

EGFR-mFc = biological target: T6, EGFR-mFc; test: ELISA, coated EGFR-mFc antigen, Bi-scFv-Fc titrated, bound construct detected with biotinylated CD16-Fc and streptavidin-HRP
T6 construct: Coated at 2.5 µg/mL in ELISA; also called monomeric EGFR-mFc; EGFR-mFc antigen
Procedure: (§4) 96-well ELISA plates (Immuno MaxiSorp; Nunc) were coated overnight at 4° C. with recombinant antigen or antibodies in 100 mM Carbonate-bicarbonate buffer. […] After a blocking step with 3% (w/v) skim milk powder (Merck) dissolved in PBS, serial dilutions of the different antibodies or soluble antigens in PBS containing 0.3% (w/v) skim milk powder were incubated on the plates for 1.5 h at room temperature. After washing three times with 300 μL per well of PBS containing 0.1% (v/v) Tween 20, plates were incubated with detection antibodies for 1 h at room temperature. For the detection of His-tagged analytes, Penta-HIS-HRP (Qiagen) was used at 1:3000 dilution. […] After washing three times with 300 μL per well of PBS containing 0.1% (v/v) Tween 20, plates were incubated with Tetramethylbenzidine (TMB) substrate (Seramun) until colour development was clearly visible. The reaction was stopped through the addition of 100 μL per well of 0.5 M H₂SO₄. The absorbance was measured at 450 nm using a multilabel plate reader (Victor, Perkin Elmer).

huCD16A^RV-His = biological target: T7, huCD16A^RV-His (human); test: ELISA, coated EGFR/CD16A Bi-scFv-Fc, soluble huCD16A^RV-His titrated (the concentration axis is that of the antigen), Penta-HIS-HRP per paragraph 126
T7 construct: soluble, His-tagged; also called CD16-His antigen
Procedure: as §4

EGFR-antigen (ELISA) = biological target: T8, EGFR-antigen (ELISA); test: ELISA, coated EGFR-Fc antigen, aTriFlex titrated (His-tagged analyte, Penta-HIS-HRP per paragraph 126)
T8 construct: also called EGFR-Fc
Procedure: as §4

CD16A-antigen (ELISA) = biological target: T9, CD16A-antigen (ELISA); test: ELISA, coated CD16A-Fc antigen, aTriFlex titrated (His-tagged analyte, Penta-HIS-HRP per paragraph 126)
T9 construct: also called CD16A-Fc
Procedure: as §4

[8] = biological target: T3, CD16A on primary human NK-cells; test: flow cytometry on primary human NK-cells, 37°C, with 10 mg/mL polyclonal human IgG (Gammanorm); with 10 mg/mL polyclonal human IgG (Gammanorm)
human EGFR on cells [9] = biological target: T2, human EGFR on cells; test: cell-based or functional assay; remark: listed apart in the source
human EGFR on cells [10] = biological target: T2, human EGFR on cells; test: flow cytometry on A-431 cells, 37°C; mean of 4 experiments

Binder | EC50 [pM] mean, 4 h calcein-release cytotoxicity, A-431 target cells, human NK-cells E:T 5:1 (human EGFR on cells [1]) [pM] | EC50 [pM] mean, 4 h calcein-release cytotoxicity, HCT-116 target cells, human NK-cells E:T 5:1 (human EGFR on cells [2]) [pM] | EC50 (read off the curve) (human EGFR on cells [3]) [nM] | EC50 (read off the curve) [4] [nM] | Kd [5] [nM] | Kd [6] [nM] | Kd (Human FcRn (FCGRT/B2M)) [nM] | Kd (Mouse FcRn (FCGRT/B2M)) [nM] | Kd [7] [nM] | EC50 (read off the curve) (EGFR-mFc) [µg/mL] | EC50 (read off the curve) (huCD16A^RV-His) [nM] | EC50 (read off the curve) (EGFR-antigen (ELISA)) [nM] | EC50 (read off the curve) (CD16A-antigen (ELISA)) [nM] | Kd [8] [nM] | EC50, inhibition of EGF-induced EGFR phosphorylation (phospho-EGFR ELISA, A-431 cells), Exp.2 (human EGFR on cells [9]) [µg/mL] | Kd (human EGFR on cells [10]) [nM]
Bi-scFv-Fc_02 (bispecific antibody, human IgG1, Homodimer: anti-CD16A scFv-Hinge-CH2-CH3 (silenced)-anti-EGFR scFv; also called EGFR/CD16A Bi-scFv-Fc; Bi-scFv-Fc_2) SYVLTQPSSVSVAPGQTATISCGGHNIGSKNVHWYQQRPGQSPVLVIYQDNKRPSGIPERFSGSNSGNTATLTISGTQAMDEADYYCQVWDNYSVLFGGGTKLTVLGGSGGSGGSGGSGGSGGSGGSQVQLVQSGAEVKKPGESLKVSCKASGYTFTSYYMHWVRQAPGQGLEWMGIINPSGGSTSYAQKFQGRVTMTRDTSTSTVYMELSSLRSEDTAVYYCARGSAYYYDFADYWGQGTLVTVSSEPKSCDKTHTCPPCPAPEFEGGPSVFLFPPKPKDTLMISRTPEVTCVVVAVSHEDPEVKFNWYVDGVEVHNAKTKPREEQYNSTYRVVSVLTVLHQDWLNGKEYKCKVSNKALPAPIEKTISKAKGQPREPQVYTLPPSREEMTKNQVSLTCLVKGFYPSDIAVEWESNGQPENNYKTTPPVLDSDGSFFLYSKLTVDKSRWQQGNVFSCSVMHEALHNHYTQKSLSLSPGGGGGSGGGGSQVQLQESGPGLVKPSETLSLTCTVSGGSVSSGSYYWSWIRQPPGKGLEWIGYIYYSGSTNYNPSLKSRVTISVDTSKNQFSLKLSSVTAADTAVYYCARNPISIPAFDIWGQGTMVTVSSGGSGGSGGSGGSGGSGGSQPVLTQPPSVSVAPGKTARITCGGNNIGSKSVHWYQQKPGQAPVLVIYYDSDRPSGIPERFSGSNSGNTATLTISRVEAGDEADYYCQVWDTSSDHVLFGGGTKLTVL | 2.7 | 3.8 | ~2 | ~6 | 5 | 268 | 410 | 121 | 20 | ~0.02 | ~4 |  |  |  |  | 
EGFR/CD16A/HSA aTriFlex (other, also called EGFR/CD16A aTriFlex) chain 1: QVQLQESGPGLVKPSETLSLTCTVSGGSVSSGSYYWSWIRQPPGKGLEWIGYIYYSGSTNYNPSLKSRVTISVDTSKNQFSLKLSSVTAADTAVYYCARNPISIPAFDIWGQGTMVTVSSGGSGGSGGSGGSGGSGGSQPVLTQPPSVSVAPGKTARITCGGNNIGSKSVHWYQQKPGQAPVLVIYYDSDRPSGIPERFSGSNSGNTATLTISRVEAGDEADYYCQVWDTSSDHVLFGGGTKLTVLGGSGGSGGSSYVLTQPSSVSVAPGQTATISCGGHNIGSKNVHWYQQRPGQSPVLVIYQDNKRPSGIPERFSGSNSGNTATLTISGTQAMDEADYYCQVWDNYSVLFGGGTKLTVLGGSGGSGGSSYVLTQPSSVSVAPGQTATISCGGHNIGSKNVHWYQQRPGQSPVLVIYQDNKRPSGIPERFSGSNSGNTATLTISGTQAMDEADYYCQVWDNYSVLFGGGTKLTVLGGSGGSGGSEVQLLESGGGLVQPGGSLRLSCAVSGIDLSNYAINWVRQAPGKGLEWIGIIWASGTTFYATWAKGRFTISRDNSKNTVYLQMNSLRAEDTAVYYCARTVPGYSTAPYFDLWGQGTLVTVSSGGSGGSGGSGGSGGSGGSDIQMTQSPSSVSASVGDRVTITCQSSPSVWSNFLSWYQQKPGKAPKLLIYEASKLTSGVPSRFSGSGSGTDFTLTISSLQPEDFATYYCGGGYSSISDTTFGGGTKVEIK chain 2: QVQLVQSGAEVKKPGESLKVSCKASGYTFTSYYMHWVRQAPGQGLEWMGIINPSGGSTSYAQKFQGRVTMTRDTSTSTVYMELSSLRSEDTAVYYCARGSAYYYDFADYWGQGTLVTVSSGGSGGSGGSQVQLVQSGAEVKKPGESLKVSCKASGYTFTSYYMHWVRQAPGQGLEWMGIINPSGGSTSYAQKFQGRVTMTRDTSTSTVYMELSSLRSEDTAVYYCARGSAYYYDFADYWGQGTLVTVSS | 5.1 | 17.6 |  |  | 50.8 |  |  |  |  |  |  | ~7 | ~4 | 456 |  | 
scFv-IgAb_01 (bispecific antibody) chain 1: QVQLQESGPGLVKPSETLSLTCTVSGGSVSSGSYYWSWIRQPPGKGLEWIGYIYYSGSTNYNPSLKSRVTISVDTSKNQFSLKLSSVTAADTAVYYCARNPISIPAFDIWGQGTMVTVSSASTKGPSVFPLAPSSKSTSGGTAALGCLVKDYFPEPVTVSWNSGALTSGVHTFPAVLQSSGLYSLSSVVVPSSSLGTQTYICNVNHKPSNTKVDKKVEPKSCDKTHTCPPCPAPEFEGGPSVFLFPPKPKDTLMISRTPEVTCVVVAVSHEDPEVKFNWYVDGVEVHNAKTKPREEQYNSTYRVVSVLTVLHQDWLNGKEYKCKVSNKALPAPIEKTISKAKGQPREPQVYTLPPSREEMTKNQVSLTCLVKGFYPSDIAVEWESNGQPENNYKTTPPVLDSDGSFFLYSKLTVDKSRWQQGNVFSCSVMHEALHNHYTQKSLSLSPGGGGGSGGGGSSYVLTQPSSVSVAPGQTATISCGGHNIGSKNVHWYQQRPGQSPVLVIYQDNKRPSGIPERFSGSNSGNTATLTISGTQAMDEADYYCQVWDNYSVLFGGGTKLTVLGGSGGSGGSGGSGGSGGSGGSQVQLVQSGAEVKKPGESLKVSCKASGYTFTSYYMHWVRQAPGQGLEWMGIINPSGGSTSYAQKFQGRVTMTRDTSTSTVYMELSSLRSEDTAVYYCARGSAYYYDFADYWGQGTLVTVSS chain 2: QPVLTQPPSVSVAPGKTARITCGGNNIGSKSVHWYQQKPGQAPVLVIYYDSDRPSGIPERFSGSNSGNTATLTISRVEAGDEADYYCQVWDTSSDHVLFGGGTKLTVLGQPKAAPSVTLFPPSSEELQANKATLVCLISDFYPGAVTVAWKADSSPVKAGVETTTPSKQSNNKYAASSYLSLTPEQWKSHRSYSCQVTHEGSTVEKTVAPTECS |  |  |  |  |  |  |  |  |  |  |  |  |  |  | > 100 | 2
